The values that follow come from patent US9932621B2, “Modulators for Sirt5 and assays for screening same” (CORNELL UNIVERSITY, priority 2010, dated 2018).

Entries after “also recorded” stand apart in the source; their conditions may differ. *1 amine or outer side, *2 acyl side, *3 side chain or, on linkers, in order; H or OH if unused. Where no end group is shown, it is not given here. The star is where a group is joined. Malonyl = O=C(CC(=O)[*:2])[*:1]; AMC = Cc1cc(=O)oc2cc(N*)ccc12; Suc = O=C(CCC(=O)[*:2])[*:1] Where only a bound is given, the exact number is not on record here.

The target of one data set is T1, Sirt2 (Homo sapiens, UniProt Q8IXJ6).
T1 construct: made in house
T1 sequence (Q8IXJ6 1-389): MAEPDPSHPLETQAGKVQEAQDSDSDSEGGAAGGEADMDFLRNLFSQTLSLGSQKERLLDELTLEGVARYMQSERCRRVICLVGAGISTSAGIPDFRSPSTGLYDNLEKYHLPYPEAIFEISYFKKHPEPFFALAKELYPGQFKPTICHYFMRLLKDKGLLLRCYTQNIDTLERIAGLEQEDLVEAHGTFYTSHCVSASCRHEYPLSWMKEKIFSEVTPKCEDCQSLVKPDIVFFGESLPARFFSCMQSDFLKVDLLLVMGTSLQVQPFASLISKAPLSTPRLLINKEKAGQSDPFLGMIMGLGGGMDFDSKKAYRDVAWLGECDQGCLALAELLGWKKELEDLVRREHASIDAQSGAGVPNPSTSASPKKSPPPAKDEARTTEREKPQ
As to the kind of experiment: Secondary screening using Sirt2 and ISGASE(AcK)-AMC fluorogenic assay. In kind it is biochemical. The following applies: inhibitor 30 μM, ISGASE(AcK)-AMC 0.3 mM, Sirt2 1 μM, FIG. 15. As for the experimental part: SirT2 (1 μM) was incubated with ISGASE(AcK)-AMC (SEQ ID NO:13) peptide (0.3 mM), inhibitors (30 μM), NAD (0.5 mM) in Tris-HCl buffer (pH 7.4, 20 mM) containing dithiothreitol (DTT, 1 mM) in a 60 μL reaction for 4 hours at 37° C. Then trypsin (1 μg) and CaCl2 (1 mM) were added and the reaction were incubated for 3 hours at 37° C. The reactions were diluted with 50 μL water. The mixture (100 μL) was transferred to 96 well plate and the fluorescence was recorded by BIO-TEK® Synergy HT (Optics Position: Top, Sensitivity: 50, Excitation at the wavelength of 360 nm and Emission at the wavelength of 460 nm).

Data set [1] deals with T2, Sirt5 (Homo sapiens, UniProt Q9NXA8).
T2 construct: made in house
T2 sequence (Q9NXA8 37-310): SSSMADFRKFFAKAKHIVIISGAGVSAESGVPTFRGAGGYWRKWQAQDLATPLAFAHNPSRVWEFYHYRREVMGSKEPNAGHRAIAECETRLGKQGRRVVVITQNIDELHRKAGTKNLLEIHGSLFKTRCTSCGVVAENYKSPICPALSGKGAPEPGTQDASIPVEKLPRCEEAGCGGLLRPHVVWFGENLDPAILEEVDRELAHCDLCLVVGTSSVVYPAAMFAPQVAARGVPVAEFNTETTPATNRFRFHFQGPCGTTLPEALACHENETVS
The experiment in a line: Screening for Sirt5 inhibitors with ISGASE(SuK)-AMC in the fluorogenic assay. In kind it is biochemical. The following applies: compound 30 μM, ISGASE(SuK)-AMC 0.3 mM, Sirt5 1 μM, FIG. 13. As for the experimental part:
SirT5 (1 μM) was incubated with ISGASE(SuK)-AMC (SEQ ID NO:11) peptide (0.3 mM), NAD (0.5 mM) in Tris-HCl buffer (pH 7.4, 20 mM) with DTT (1 mM) in 60 μL reactions for 4 hours at 37° C. Then trypsin (1 μg) and CaCl2 (1 mM) were added and the reactions were incubated for 3 hours at 37° C. The reactions were the diluted with 50 μL water. The mixture (100 μL) was transferred to 96 well plate and the fluorescence was recorded by BIO-TEK® Synergy HT plate reader (Optics Position: Top, Sensitivity: 50, Excitation at the wavelength of 360 nm and Emission at the wavelength of 460 nm).
The procedure was the same as described above (Assaying Sirt5 activity on ISGASE(SuK)-AMC in the fluorogenic assay), except that different compounds (30 μM) were included in the reactions. In the desuccinylation step, Sirt5 was added last to initiate the desuccinylation reaction.

The target in data set [2] is T2, Sirt5. As to the kind of experiment: Sirt5 deacetylation, demalonylation, desuccinylation kinetics on WW-tagged peptides by HPLC. The following applies: peptides with two C-terminal tryptophan residues; for Km: read-out: Peptide Km. In kind it is biochemical. As for the experimental part:
(§1) For determination of kcat and Km, human Sirt1, Sirt2, Sirt3 and Sirt5 were measured by detecting the deacylated peptide from H3K9 acyl peptides using HPLC. Purified Sirtuin was incubated with 1.0 mM of NAD in 20 mM Tris-HCl buffer (pH 7.5) containing acyl peptides (0-750 μM) and 1 mM DTT in 60 μL reactions at 37° C. The reactions were stopped with 100 mM HCl and 160 mM acetic acid, analyzed by HPLC with a reverse phase C18 column (250×4.6 mm, 90 A, 10 μm, GraceVydac, Southborough, Mass.), with a linear gradient of 0% to 20% B for 10 min (1 mL/min). […] The kcat and Km values were obtained by curve-fitting the Vinitial/[E] versus [S] plot using KaleidaGraph. For Sirt5 R105M, the observed second order rate constant, kobs (rate/([Sirtuin][NAD])) was detected instead of kcat and Km because of the very weak deacylation activity. The experiments were done in duplicate.
(§2) For comparing the deacetylation, demalonylation and desuccinylation activities of Sirt5 on different peptide backbones (results shown in Table 2), histone H3, GDH and ACS2 peptides with two tryptophan residues at the C-terminal were used to allow better detection and quantification on HPLC. The determination of kcat and Km was carried out essentially the same as mentioned above with slight modifications. The reactions were quenched with 60 μL 10% TFA. The chromatography gradient was 0% to 50% B for 20 min (1 mL/min). The peptides were detected and quantified on the LC by the absorption at 280 nm.

Data set [3] deals with T2, Sirt5. The experiment in a line: Sirt5-catalyzed desuccinylation of AMC-succinyl peptides monitored by HPLC. In kind it is biochemical. The following applies: 2 hrs. On the procedure: […] The reactions were stopped with 200 mM HCl and 320 mM acetic acid, analyzed by HPLC with a reverse phase C18 column (250×4.6 mm, 90 A, 10 μm, GraceVydac, Southborough, Mass.), with a linear gradient of 0% to 20% B for 10 min (1 mL/min).

Substrate in data set [4]: C[C@H](NC(=O)[C@@H](NC(=O)[C@H](CCC(N)=O)NC(=O)[C@@H](N)CCCCN)[C@@H](C)O)C(=O)N[C@@H](CCCNC(=N)N)C(=O)N[C@@H](CCCCNC(=O)CC(=O)O)C(=O)N[C@@H](CO)C(=O)N[C@H](C(=O)NCC(=O)NCC(=O)N[C@@H](Cc1c[nH]c2ccccc12)C(=O)N[C@@H](Cc1c[nH]c2ccccc12)C(=O)O)[C@@H](C)O
The experiment in a line: Sirt5 deacetylation, demalonylation, desuccinylation kinetics on WW-tagged peptides by HPLC. In kind it is biochemical, human. The settings on record: other: Sirt5, peptides with two C-terminal tryptophan residues, pH 7.5. On the procedure: as §1, §2

Substrate in data set [5]: C[C@H](NC(=O)[C@@H](NC(=O)[C@H](CCC(N)=O)NC(=O)[C@@H](N)CCCCN)[C@@H](C)O)C(=O)N[C@@H](CCCNC(=N)N)C(=O)N[C@@H](CCCCNC(=O)CCC(=O)O)C(=O)N[C@@H](CO)C(=O)N[C@H](C(=O)NCC(=O)NCC(=O)N[C@@H](Cc1c[nH]c2ccccc12)C(=O)N[C@@H](Cc1c[nH]c2ccccc12)C(=O)O)[C@@H](C)O
Described as above. In kind it is biochemical, human. The settings on record: other: Sirt5, peptides with two C-terminal tryptophan residues, pH 7.5. As for the experimental part:
as §1, §2

Turning to `Cc1ccc(C(=O)Nc2ccc(S(=O)(=O)O)c3cc(S(=O)(=O)O)cc(S(=O)(=O)O)c23)cc1NC(=O)c1cccc(NC(=O)Nc2cccc(C(=O)Nc3cc(C(=O)Nc4ccc(S(=O)(=O)O)c5cc(S(=O)(=O)O)cc(S(=O)(=O)O)c45)ccc3C)c2)c1` [suramin], on Sirt2, the “fluorescence produced by Sirt2 in fluorogenic assay” value is on record as “decreased the fluorescence to almost background level”. Further, the “inhibition of Sirt5 (fluorescence) in fluorogenic assay” value on Sirt5 [1] is “close to background level; also recorded: significant inhibition”.
Turning to “GDH K503 (498-509 + WW) acetyl peptide: GDH K503 acetyl peptide (498-509) with two C-terminal tryptophan residues (SGASEK(Ac)DIVHSGWW)”, the Km (usually the concentration of substrate that gives half-maximal velocity) with Sirt5 [2] was over 750 µM.
In the case of “GDH K503 (498-509 + WW) malonyl peptide: GDH K503 malonyl peptide (498-509) with two C-terminal tryptophan residues (SGASEK(Malonyl)DIVHSGWW)”, in the data set with Sirt5 [2], the kcat (as a rule, the number of substrate molecules converted per active site and unit of time at saturation) amounted to 0.014 ± 0.001 s⁻¹; the Km turned out to be 8.7 ± 1.3 µM.
“GDH K503 (498-509 + WW) succinyl peptide: GDH K503 succinyl peptide (498-509) with two C-terminal tryptophan residues (SGASEK(Suc)DIVHSGWW)”: in the data set with Sirt5 [2], the kcat came out at 0.028 ± 0.002 s⁻¹ and the Km came out at 14 ± 4 µM.
As to ISGASE(SuK)-AMC (ISGASEK(Suc)-{AMC}), the succinyl peptide desuccinylated in the data set with Sirt5 [3] (1 μM Sirt5, 300 μM peptide) stood at 7.3%; in the data set with Sirt5 [3] (2 μM Sirt5, 300 μM peptide) it was 17%; with Sirt5 [3] (5 μM Sirt5, 300 μM peptide), 36%.
For “KQTARK(Ac)STGGWW [H3 K9 (4-13 + WW) acetyl peptide]”, at Sirt5 [2], the Km is over 750 µM.

B1: Sirt5 (Homo sapiens) (protein)
chain: T2 sequence (Q9NXA8 37-310)
notes: made in house
On to B1, for which, in data set [4], the Km came out at 6.1 ± 2.8 µM; the kcat came out at 0.037 ± 0.003 s⁻¹; the kcat/Km (in general, the second-order rate constant that governs catalysis at low substrate concentration) turned out to be 6100 M⁻¹ s⁻¹. Further, in data set [5], the Km worked out at 5.8 ± 2.7 µM, the kcat was determined as 0.025 ± 0.002 s⁻¹ and the kcat/Km was found to be 4300 M⁻¹ s⁻¹.
